Patent publication US20220002398A1 (ONCOONE RESEARCH AND DEVELOPMENT, published 2022)

B1: C0032 (Anti-oxMIF-scFv fused to an anti-CD3-scFv, BiTE) (bispecific antibody)
chain: DIQMTQSPSSLSASVGDRVTITCRSSQRIMTYLNWYQQKPGKAPKLLIFVASHSQSGVPSRFRGSGSETDFTLTISGLQPEDSATYYCQQSFWTPLTFGGGTKVEIKGGGGSGGGGSGGGGSEVQLLESGGGLVQPGGSLRLSCAASGFTFSIYSMNWVRQAPGKGLEWVSSIGSSGGTTYYADSVKGRFTISRDNSKNTLYLQMNSLRAEDTAVYYCAGSQWLYGMDVWGQGTTVTVSSGGGGSQVQLVQSGAEVKKPGASVKVSCKASGYTFTRYTMHWVRQAPGQGLEWMGYINPSRGYTNYNQKFKDRVTLTTDKSSSTAYMELSSLRSEDTAVYYCARYYDDHYSLDYWGQGTLVTVSSGGSGGSGGSGGSGGSDIQMTQSPSSLSASVGDRVTITCSASSSVSYMNWYQQKPGKAPKRLIYDTSKLASGVPSRFSGSGSGTDFTLTISSLQPEDFATYYCQQWSSNPFTFGQGTKLEIKAAAEQKLISEEDLSAWSHPQFEK
notes: also called anti-oxMIF/CD3 BiTE
B2: C0006 (Anti-oxMIF/CD3 Crossmab (CH1-CL), Crossmab) (bispecific antibody, human IgG1, kappa)
light 1: DIQMTQSPSSLSASVGDRVTITCRSSQRIMTYLNWYQQKPGKAPKLLIFVASHSQSGVPSRFRGSGSETDFTLTISGLQPEDSATYYCQQSFWTPLTFGGGTKVEIKRTVAAPSVFIFPPSDEQLKSGTASVVCLLNNFYPREAKVQWKVDNALQSGNSQESVTEQDSKDSTYSLSSTLTLSKADYEKHKVYACEVTHQGLSSPVTKSFNRGEC
heavy 1: not shown
heavy 2: not shown
light 2: DIQMTQSPSSLSASVGDRVTITCSASSSVSYMNWYQQKPGKAPKRLIYDTSKLASGVPSRFSGSGSGTDFTLTISSLQPEDFATYYCQQWSSNPFTFGQGTKLEIKSSASTKGPSVFPLAPSSKSTSGGTAALGCLVKDYFPEPVTVSWNSGALTSGVHTFPAVLQSSGLYSLSSVVTVPSSSLGTQTYICNVNHKPSNTKVDKKVEPKSC
B3: C0007 (Full anti-oxMIF IgG with anti-CD3 scFv fused to heavy chain, v IgG1-scFv fusion) (bispecific antibody)
heavy: not shown
light: B2 light 1
B4: C0008 (full anti-oxMIF IgG, IgG1) (antibody, V domains shown)
VH: EVQLLESGGGLVQPGGSLRLSCAASGFTFSIYSMNWVRQAPGKGLEWVSSIGSSGGTTYYADSVKGRFTISRDNSKNTLYLQMNSLRAEDTAVYYCAGSQWLYGMDVWGQGTTVTVSS
VL: DIQMTQSPSSLSASVGDRVTITCRSSQRIMTYLNWYQQKPGKAPKLLIFVASHSQSGVPSRFRGSGSETDFTLTISGLQPEDSATYYCQQSFWTPLTFGGGTKVEIKR
notes: Monospecific control antibody; also called anti-oxMIF monospecific control antibody
B5: C0039 (Full anti-oxMIF IgG with anti-CD3 scFv fused to light chain, IgG(lc)-scFv) (bispecific antibody)
heavy: not shown
light: DIQMTQSPSSLSASVGDRVTITCRSSQRIMTYLNWYQQKPGKAPKLLIFVASHSQSGVPSRFRGSGSETDFTLTISGLQPEDSATYYCQQSFWTPLTFGGGTKVEIKRTVAAPSVFIFPPSDEQLKSGTASVVCLLNNFYPREAKVQWKVDNALQSGNSQESVTEQDSKDSTYSLSSTLTLSKADYEKHKVYACEVTHQGLSSPVTKSFNRGECGGGGSGGGGSGGGGSQVQLVQSGAEVKKPGASVKVSCKASGYTFTRYTMHWVRQAPGQGLEWMGYINPSRGYTNYNQKFKDRVTLTTDKSSSTAYMELSSLRSEDTAVYYCARYYDDHYSLDYWGQGTLVTVSSGGSGGSGGSGGSGGSDIQMTQSPSSLSASVGDRVTITCSASSSVSYMNWYQQKPGKAPKRLIYDTSKLASGVPSRFSGSGSGTDFTLTISSLQPEDFATYYCQQWSSNPFTFGQGTKLEIK
notes: also called IgG(Ic)-scFv
B6: C0033 (Variable domains of anti-oxMIF and anti-CD3 fused in a row (VL1-VH2-VL2-VH1, TandAb)) (bispecific antibody)
chain: DIQMTQSPSSLSASVGDRVTITCSASSSVSYMNWYQQKPGKAPKRLIYDTSKLASGVPSRFSGSGSGTDFTLTISSLQPEDFATYYCQQWSSNPFTFGQGTKLEIKGGSGGSEVQLLESGGGLVQPGGSLRLSCAASGFTFSIYSMNWVRQAPGKGLEWVSSIGSSGGTTYYADSVKGRFTISRDNSKNTLYLQMNSLRAEDTAVYYCAGSQWLYGMDVWGQGTTVTVSSGGSGGSDIQMTQSPSSLSASVGDRVTITCRSSQRIMTYLNWYQQKPGKAPKLLIFVASHSQSGVPSRFRGSGSETDFTLTISGLQPEDSATYYCQQSFWTPLTFGGGTKVEIKGGSGGSQVQLVQSGAEVKKPGASVKVSCKASGYTFTRYTMHWVRQAPGQGLEWMGYINPSRGYTNYNQKFKDRVTLTTDKSSSTAYMELSSLRSEDTAVYYCARYYDDHYSLDYWGQGTLVTVSSAAAEQKLISEEDLSAWSHPQFEK
B7: C0037 (Anti-oxMIF Fab fused to two anti-CD3 scFv, format: Fab-(scFv)2) (bispecific antibody)
heavy: EVQLLESGGGLVQPGGSLRLSCAASGFTFSIYSMNWVRQAPGKGLEWVSSIGSSGGTTYYADSVKGRFTISRDNSKNTLYLQMNSLRAEDTAVYYCAGSQWLYGMDVWGQGTTVTVSSASTKGPSVFPLAPSSKSTSGGTAALGCLVKDYFPEPVTVSWNSGALTSGVHTFPAVLQSSGLYSLSSVVTVPSSSLGTQTYICNVNHKPSNTKVDKRVEPKSCGGGGSGGGGSGGGGSQVQLVQSGAEVKKPGASVKVSCKASGYTFTRYTMHWVRQAPGQGLEWMGYINPSRGYTNYNQKFKDRVTLTTDKSSSTAYMELSSLRSEDTAVYYCARYYDDHYSLDYWGQGTLVTVSSGGSGGSGGSGGSGGSDIQMTQSPSSLSASVGDRVTITCSASSSVSYMNWYQQKPGKAPKRLIYDTSKLASGVPSRFSGSGSGTDFTLTISSLQPEDFATYYCQQWSSNPFTFGQGTKLEIKAAAEQKLISEEDLAAHHHHHH
light: DIQMTQSPSSLSASVGDRVTITCRSSQRIMTYLNWYQQKPGKAPKLLIFVASHSQSGVPSRFRGSGSETDFTLTISGLQPEDSATYYCQQSFWTPLTFGGGTKVEIKRTVAAPSVFIFPPSDEQLKSGTASVVCLLNNFYPREAKVQWKVDNALQSGNSQESVTEQDSKDSTYSLSSTLTLSKADYEKHKVYACEVTHQGLSSPVTKSFNRGECGGGSGGGSGGGSQVQLVQSGAEVKKPGASVKVSCKASGYTFTRYTMHWVRQAPGQGLEWMGYINPSRGYTNYNQKFKDRVTLTTDKSSSTAYMELSSLRSEDTAVYYCARYYDDHYSLDYWGQGTLVTVSSGGSGGSGGSGGSGGSDIQMTQSPSSLSASVGDRVTITCSASSSVSYMNWYQQKPGKAPKRLIYDTSKLASGVPSRFSGSGSGTDFTLTISSLQPEDFATYYCQQWSSNPFTFGQGTKLEIKASAWSHPQFEK
B8: C0036 (Anti-oxMIF Fab fused to anti-CD3 scFv (HC); format: Fab-scFv) (bispecific antibody)
heavy: B7 heavy
light: B2 light 1
B9: C0038 (Anti-oxMIF Fab and anti-CD3 scFv fused to Fc, Fab-scFv-Fc) (bispecific antibody, human IgG1, kappa)
light: B2 light 1
heavy: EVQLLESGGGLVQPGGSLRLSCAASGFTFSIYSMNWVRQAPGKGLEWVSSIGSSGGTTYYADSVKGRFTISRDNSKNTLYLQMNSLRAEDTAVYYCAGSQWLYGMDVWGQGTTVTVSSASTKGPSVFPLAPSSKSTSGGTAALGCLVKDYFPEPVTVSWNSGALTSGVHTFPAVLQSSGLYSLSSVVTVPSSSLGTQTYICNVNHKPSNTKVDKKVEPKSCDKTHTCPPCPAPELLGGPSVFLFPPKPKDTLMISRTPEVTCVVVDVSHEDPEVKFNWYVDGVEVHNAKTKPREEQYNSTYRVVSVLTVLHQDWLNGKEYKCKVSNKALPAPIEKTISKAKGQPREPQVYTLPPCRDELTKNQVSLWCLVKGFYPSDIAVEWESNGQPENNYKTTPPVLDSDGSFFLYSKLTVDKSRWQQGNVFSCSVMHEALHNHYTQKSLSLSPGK
chain: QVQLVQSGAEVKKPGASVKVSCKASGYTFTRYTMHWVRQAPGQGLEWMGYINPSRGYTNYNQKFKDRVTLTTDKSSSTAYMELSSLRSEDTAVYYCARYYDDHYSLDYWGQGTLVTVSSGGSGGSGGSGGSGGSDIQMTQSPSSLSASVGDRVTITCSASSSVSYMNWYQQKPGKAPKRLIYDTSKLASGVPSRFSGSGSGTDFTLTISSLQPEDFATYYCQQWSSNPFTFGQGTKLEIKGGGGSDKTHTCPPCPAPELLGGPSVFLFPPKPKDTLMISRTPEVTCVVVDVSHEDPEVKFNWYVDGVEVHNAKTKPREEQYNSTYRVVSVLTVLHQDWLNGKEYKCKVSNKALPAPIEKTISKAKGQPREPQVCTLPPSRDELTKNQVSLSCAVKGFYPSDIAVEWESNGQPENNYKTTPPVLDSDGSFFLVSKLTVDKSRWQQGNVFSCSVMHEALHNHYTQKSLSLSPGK

Target: T1, native CD3 on CD3-positive Jurkat T cells (UniProt P07766 23-207; P04234 22-171; P09693 23-182)
T1 construct: whole, on cells; also called functional CD3 (CD3+)
T1 sequence (P07766 23-207, chain 1 of 3): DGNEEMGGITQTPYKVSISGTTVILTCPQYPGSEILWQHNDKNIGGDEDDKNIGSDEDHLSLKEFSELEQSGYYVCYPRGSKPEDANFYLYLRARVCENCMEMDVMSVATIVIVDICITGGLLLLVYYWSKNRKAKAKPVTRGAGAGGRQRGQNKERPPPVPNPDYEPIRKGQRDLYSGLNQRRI
T1 sequence (P04234 22-171, chain 2 of 3): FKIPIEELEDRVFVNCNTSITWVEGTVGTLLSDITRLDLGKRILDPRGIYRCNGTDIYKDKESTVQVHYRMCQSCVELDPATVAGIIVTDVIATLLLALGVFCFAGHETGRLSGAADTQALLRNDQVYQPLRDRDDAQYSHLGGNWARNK
T1 sequence (P09693 23-182, chain 3 of 3): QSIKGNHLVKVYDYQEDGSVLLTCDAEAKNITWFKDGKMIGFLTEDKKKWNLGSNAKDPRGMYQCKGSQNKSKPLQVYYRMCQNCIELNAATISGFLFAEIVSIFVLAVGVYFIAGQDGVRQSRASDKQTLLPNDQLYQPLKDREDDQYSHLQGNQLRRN
Assay: flow cytometry on viable CD3+ Jurkat T cells, antibody at 70 nM, goat anti-human IgG (H+L) Alexa Fluor 488
Experimental: CD3 positive Jurkat T-cells, which express functional CD3 (CD3+) were incubated with bispecific antibodies, C0008 (anti-oxMIF monospecific control antibody), a non-specific isotype control antibody (Isotype) at a concentration of 70 nM or without antibody (secondary ab only). Bound antibodies were detected by a goat anti-human IgG (H+L) Alexa-Fluor 488 conjugate (secondary antibody). 7AAD was used to label dead cells and samples were analysed by FACS.

Binder	binding result
B1	binds
B2	binds
B3	binds
B4	no binding (tested: 70 nM)
B5	binds

Target: T2, Recombinant human MIF, immobilized (transforming MIF to oxMIF) (human, UniProt P14174 2-115)
T2 construct: also called immobilized MIF (oxMIF); HuMIF
T2 sequence (P14174 2-115 limits assumed): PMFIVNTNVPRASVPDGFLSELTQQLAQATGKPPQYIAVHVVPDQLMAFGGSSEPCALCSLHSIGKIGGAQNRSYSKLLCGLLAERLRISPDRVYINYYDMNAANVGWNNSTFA
Assay: SPR, Biacore T200, HuMIF immobilized on CM5 chip, single cycle kinetics, 1:1 Langmuir model
Experimental: The affinity of the antibodies was determined using a Biacore™ T200 device. HuMIF was immobilized onto CM5 sensor chips and anti-oxMIF bispecific entities were injected at different concentrations in running buffer (HBS-EP plus 0.1% BSA) to generate single cycle kinetic profiles.

Kd	Binder
4.8 nM	B6
4.3 nM	B1
5.9 nM	B7
7.2 nM	B2
2.3 nM	B8
0.61 nM	B3
9.4 nM	B9
1 nM	B5

Target: T2, Recombinant human MIF, immobilized …
Assay: ELISA, immobilized recombinant human MIF (oxMIF), protein L-HRP detection, 4-parameter fit
Experimental: Recombinant human MIF (1 μg/ml) diluted in PBS was immobilized into microwell plates (transforming MIF to oxMIF according to Thiele M. et al., 2015, J Immunol 2015; 195:2343-2352). After blocking, the bispecific antibodies were added to the plates at different concentrations. Bound bispecific antibodies were detected using protein L-HRP conjugate. Plates were developed by adding TMB and chromogenic reaction was stopped with H₂SO₄. OD was measured at 450 nm.
EC50 values of the binding curves, which reflect rough KD estimates, were calculated by 4-parameter fit and are shown in Table 5.

EC50	Binder
1.9 nM	B6
4 nM	B1
3.4 nM	B7
4.6 nM	B2
2.3 nM	B8
0.3 nM	B3
4.6 nM	B9
0.3 nM	B5
